Square brackets hold non-standard residues; d marks the D form. Peptide text beside a SMILES is read from it.
Legend:
[1] = target: T1, ETBR (endothelin-bombesin receptor) expressed in Xenopus oocytes (Homo sapiens, UniProt O15354); assay: Xenopus oocyte assay to identify ligand (voltage-clamp, calcium activated chloride channel activity); format: cell-based; conditions: for Cl- current response upon addition of ligand: 10 nM ligand, oocytes injected with RNA from ATCC #75823, clamped at -60 mV; for mean peak ± S.E. peak current response (chloride current): oocytes injected with pHHPEC49 derived RNA transcripts, n=75
T1 construct: expressed in transfected cells; host or cells: Xenopus oocytes microinjected with in vitro transcribed RNA
T1 sequence (O15354 27-613): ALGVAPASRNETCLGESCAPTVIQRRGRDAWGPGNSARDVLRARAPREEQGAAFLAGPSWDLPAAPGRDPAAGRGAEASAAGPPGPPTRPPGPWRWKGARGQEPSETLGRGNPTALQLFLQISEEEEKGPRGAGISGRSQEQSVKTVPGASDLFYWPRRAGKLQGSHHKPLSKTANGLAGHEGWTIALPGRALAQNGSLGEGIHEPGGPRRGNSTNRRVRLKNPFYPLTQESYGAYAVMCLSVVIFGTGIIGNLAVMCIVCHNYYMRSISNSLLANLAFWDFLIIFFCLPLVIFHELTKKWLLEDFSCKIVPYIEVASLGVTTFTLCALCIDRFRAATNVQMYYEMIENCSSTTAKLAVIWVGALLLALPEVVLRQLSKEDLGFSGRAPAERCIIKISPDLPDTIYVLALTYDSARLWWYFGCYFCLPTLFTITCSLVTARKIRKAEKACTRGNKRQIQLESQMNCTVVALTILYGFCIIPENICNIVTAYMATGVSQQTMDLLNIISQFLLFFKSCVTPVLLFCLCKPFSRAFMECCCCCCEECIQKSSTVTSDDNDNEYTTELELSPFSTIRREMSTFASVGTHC
Description: Arrow indicates ET1 addition. […] The mean peak ± S.E. peak current response to ET1 is 150±50 (n=75), ET2 156±55 (n=75) and Bombesin 148±47 (n=75).
(§1) RNA was synthesized in vitro from linearized DNA, ATCC #75823, using an RNA transcription kit. This RNA was microinjected into Xenopus oocytes (10 ng of RNA/occytes). The oocytes were manually defolliculated prior to microinjection to remove any endogenous receptors that might be present in the follicular membranes. The injected oocytes were maintained in modified Barth's medium at 18° C. for 48 hours to allow for receptor protein expression. Electrophysiology was performed using the voltage-clamp technique. Oocytes were clamped at −60 mV and the calcium activated chloride channel activity was recorded in Barth's medium at room temperature. Data were analyzed using Axotape software.
(§2) The ET1 and ET3 mediated response was blocked by the ET receptor peptide antagonist BQ123. […] Since it responds to both ET and Bombesin it represents a novel endothelin-bombesin receptor.

uninjected oocytes = assay: Uninjected Xenopus oocytes (control for endogenous response); format: cell-based; conditions: uninjected oocytes (data not shown)
Description: as §1, §2

Row | Molecule | effect on ET1 and ET3 mediated response ([1]; oocytes injected with RNA from ATCC #75823) | Cl- current response upon addition of ligand [1] | mean peak ± S.E. peak current response (chloride current) [1] | change in membrane potential upon addition of ligand (uninjected oocytes)
1 | CC(C)C[C@@H]1NC(=O)[C@@H](C(C)C)NC(=O)[C@@H]2CCCN2C(=O)[C@@H](CC(=O)O)NC(=O)[C@@H](Cc2c[nH]c3ccccc23)NC1=O [BQ123] (cyclo(L[dW][dD]P[dV])) | blocked |  |  | 
2 | AII: related peptide ligand (DRVYIHPF) |  | did not illicit any response |  | 
3 | Neuropeptide Y |  | did not illicit any response |  | 
4 | endothelin-1 [ET1] |  | fairly strong Cl^− currents | 150±50 nanoamps | did not elicit any change in membrane potential
5 | endothelin-2 (CSCSSWLDKECVYFCHLDIIW) [ET2, member of the endothelin peptide family] |  |  | 156±55 nanoamps | 
6 | endothelin-3 [ET3] |  | fairly strong Cl^− currents |  | did not elicit any change in membrane potential

Source: US6518404B1, “Human endothelin-bombesin receptor antibodies” (priority 1994, dated 2003)
